Data reported in paper PMC7610778 (Science (New York, N.Y.), 2020).

Key:
mCherry-Atg11 = target: T1, mCherry-Atg11 (yeast (S. cerevisiae), UniProt Q12527 1-1178); assay: pull-down
T1 sequence: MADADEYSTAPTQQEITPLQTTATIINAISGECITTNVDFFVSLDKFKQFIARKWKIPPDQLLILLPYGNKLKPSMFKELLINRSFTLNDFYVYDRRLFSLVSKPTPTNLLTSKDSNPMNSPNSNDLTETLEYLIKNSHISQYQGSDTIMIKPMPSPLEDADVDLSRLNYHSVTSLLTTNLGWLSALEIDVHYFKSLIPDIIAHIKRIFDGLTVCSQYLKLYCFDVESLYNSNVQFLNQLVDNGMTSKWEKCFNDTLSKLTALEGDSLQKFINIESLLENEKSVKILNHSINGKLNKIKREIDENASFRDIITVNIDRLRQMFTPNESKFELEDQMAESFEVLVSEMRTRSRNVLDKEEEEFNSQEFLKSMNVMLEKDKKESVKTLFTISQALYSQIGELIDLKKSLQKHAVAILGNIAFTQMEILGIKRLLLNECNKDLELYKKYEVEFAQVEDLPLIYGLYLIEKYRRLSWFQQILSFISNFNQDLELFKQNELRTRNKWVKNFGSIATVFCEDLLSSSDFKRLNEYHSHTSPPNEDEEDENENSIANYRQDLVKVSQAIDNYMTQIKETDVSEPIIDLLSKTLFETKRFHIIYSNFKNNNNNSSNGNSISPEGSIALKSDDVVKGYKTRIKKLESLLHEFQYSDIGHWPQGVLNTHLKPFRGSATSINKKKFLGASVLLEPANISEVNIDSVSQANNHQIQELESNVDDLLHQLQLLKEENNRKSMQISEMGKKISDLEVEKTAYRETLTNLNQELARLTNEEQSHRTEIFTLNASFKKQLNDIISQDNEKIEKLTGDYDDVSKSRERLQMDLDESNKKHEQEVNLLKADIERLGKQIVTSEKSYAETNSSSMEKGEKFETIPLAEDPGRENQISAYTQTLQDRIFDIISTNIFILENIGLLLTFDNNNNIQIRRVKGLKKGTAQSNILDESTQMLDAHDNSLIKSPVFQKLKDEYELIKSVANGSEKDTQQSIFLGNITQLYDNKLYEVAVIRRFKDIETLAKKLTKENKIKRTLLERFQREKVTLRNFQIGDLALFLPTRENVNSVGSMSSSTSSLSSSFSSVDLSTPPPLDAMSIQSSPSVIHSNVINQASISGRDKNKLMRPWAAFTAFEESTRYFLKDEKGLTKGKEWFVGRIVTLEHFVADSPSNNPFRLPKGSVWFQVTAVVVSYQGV

Atg2-Atg18-CBP complex = Atg2-Atg18-CBP complex (yeast (S. cerevisiae), UniProt P53855;P43601); assay: pull-down
Atg2-Atg18-CBP complex, sequence (P53855 whole entry, chain 1 of 2): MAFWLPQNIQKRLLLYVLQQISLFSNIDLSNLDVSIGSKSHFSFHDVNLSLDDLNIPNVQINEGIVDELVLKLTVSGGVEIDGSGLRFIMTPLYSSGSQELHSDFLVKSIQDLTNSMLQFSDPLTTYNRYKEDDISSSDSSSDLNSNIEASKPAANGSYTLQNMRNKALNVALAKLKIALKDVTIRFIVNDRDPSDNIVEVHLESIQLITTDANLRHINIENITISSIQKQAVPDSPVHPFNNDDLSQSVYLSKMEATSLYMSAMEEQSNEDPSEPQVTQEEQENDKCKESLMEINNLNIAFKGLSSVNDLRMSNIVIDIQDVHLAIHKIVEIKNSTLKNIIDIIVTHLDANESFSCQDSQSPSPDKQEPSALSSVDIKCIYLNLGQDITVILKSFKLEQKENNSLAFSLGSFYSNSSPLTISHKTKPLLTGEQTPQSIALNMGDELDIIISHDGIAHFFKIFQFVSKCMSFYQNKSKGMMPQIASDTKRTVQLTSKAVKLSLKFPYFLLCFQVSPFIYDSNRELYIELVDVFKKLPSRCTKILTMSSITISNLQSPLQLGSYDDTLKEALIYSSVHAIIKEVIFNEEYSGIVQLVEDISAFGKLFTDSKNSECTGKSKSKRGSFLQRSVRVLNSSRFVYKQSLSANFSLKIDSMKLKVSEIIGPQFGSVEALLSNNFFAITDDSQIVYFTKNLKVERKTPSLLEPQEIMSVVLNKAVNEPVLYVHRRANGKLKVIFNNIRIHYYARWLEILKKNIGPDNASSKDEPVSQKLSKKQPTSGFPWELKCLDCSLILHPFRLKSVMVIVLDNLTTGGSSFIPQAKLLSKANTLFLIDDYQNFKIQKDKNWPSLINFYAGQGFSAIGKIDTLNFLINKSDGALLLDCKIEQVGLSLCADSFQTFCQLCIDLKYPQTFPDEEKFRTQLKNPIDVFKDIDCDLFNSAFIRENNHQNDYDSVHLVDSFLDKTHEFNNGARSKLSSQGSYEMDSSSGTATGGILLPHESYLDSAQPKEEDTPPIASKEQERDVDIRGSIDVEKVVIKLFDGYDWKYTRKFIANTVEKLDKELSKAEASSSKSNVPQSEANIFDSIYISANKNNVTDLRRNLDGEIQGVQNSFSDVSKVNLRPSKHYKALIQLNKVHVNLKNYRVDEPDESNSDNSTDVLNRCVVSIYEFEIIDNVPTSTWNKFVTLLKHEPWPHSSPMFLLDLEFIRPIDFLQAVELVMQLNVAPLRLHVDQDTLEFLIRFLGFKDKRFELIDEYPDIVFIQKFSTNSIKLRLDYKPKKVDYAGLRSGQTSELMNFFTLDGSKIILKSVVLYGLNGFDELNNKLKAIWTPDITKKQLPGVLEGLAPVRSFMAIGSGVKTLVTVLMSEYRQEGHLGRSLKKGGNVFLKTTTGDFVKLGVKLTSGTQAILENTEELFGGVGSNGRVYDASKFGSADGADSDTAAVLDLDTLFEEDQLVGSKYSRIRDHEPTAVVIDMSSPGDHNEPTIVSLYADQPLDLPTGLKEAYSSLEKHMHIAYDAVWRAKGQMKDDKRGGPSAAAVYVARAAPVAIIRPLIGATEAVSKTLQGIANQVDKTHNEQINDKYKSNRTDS
Atg2-Atg18-CBP complex, sequence (P43601 whole entry, chain 2 of 2): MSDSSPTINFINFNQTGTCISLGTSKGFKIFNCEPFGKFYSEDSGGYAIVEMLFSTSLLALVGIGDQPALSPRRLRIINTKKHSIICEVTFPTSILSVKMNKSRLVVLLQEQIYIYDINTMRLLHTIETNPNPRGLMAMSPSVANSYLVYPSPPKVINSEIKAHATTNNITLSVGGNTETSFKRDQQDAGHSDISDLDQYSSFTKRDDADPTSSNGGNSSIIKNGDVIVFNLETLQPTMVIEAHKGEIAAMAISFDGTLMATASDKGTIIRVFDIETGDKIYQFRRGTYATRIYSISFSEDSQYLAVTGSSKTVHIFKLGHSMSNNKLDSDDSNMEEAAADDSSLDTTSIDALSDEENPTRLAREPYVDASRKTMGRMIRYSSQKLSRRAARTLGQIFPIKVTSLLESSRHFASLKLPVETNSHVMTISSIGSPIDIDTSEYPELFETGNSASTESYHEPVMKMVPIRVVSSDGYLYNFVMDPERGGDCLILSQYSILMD

Atg2-mEGFP = Atg2-mEGFP (yeast (S. cerevisiae), UniProt P53855 1-1592); assay: pull-down
Atg2-mEGFP, sequence (P53855 whole entry): as the sequence (P53855 whole entry, chain 1 of 2) above

[1] = target: the molecule itself
[2] = target: T2, Atg12–Atg5-Atg16-mCherry complex (yeast (S. cerevisiae), UniProt P38316;Q12380;Q03818, Atg12–Atg5 conjugate | Atg12–Atg5 conjugate); assay: membrane recruitment to GUVs imaged by microscopy
T2 sequence 1: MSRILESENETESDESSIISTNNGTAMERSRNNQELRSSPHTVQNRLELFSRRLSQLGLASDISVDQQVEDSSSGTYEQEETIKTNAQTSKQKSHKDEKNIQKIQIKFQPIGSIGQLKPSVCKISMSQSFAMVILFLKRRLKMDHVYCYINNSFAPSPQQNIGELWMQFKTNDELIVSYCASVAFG
T2 sequence 2: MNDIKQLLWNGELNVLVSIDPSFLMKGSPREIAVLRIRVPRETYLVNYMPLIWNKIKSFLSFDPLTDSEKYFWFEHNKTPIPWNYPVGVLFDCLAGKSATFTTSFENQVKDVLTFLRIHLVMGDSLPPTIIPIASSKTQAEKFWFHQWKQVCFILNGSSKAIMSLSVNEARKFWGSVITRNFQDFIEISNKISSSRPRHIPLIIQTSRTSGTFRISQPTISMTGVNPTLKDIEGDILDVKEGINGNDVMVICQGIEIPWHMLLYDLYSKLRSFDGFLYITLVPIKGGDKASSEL
T2 sequence 3: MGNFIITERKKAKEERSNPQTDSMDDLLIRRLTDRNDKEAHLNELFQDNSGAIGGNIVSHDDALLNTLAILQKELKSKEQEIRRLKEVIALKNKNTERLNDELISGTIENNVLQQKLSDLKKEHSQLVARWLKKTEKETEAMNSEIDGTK

B1: Atg19-3D (S390D, S391D, S396D) (natural protein)
chain: MNNSKTNQQMNTSMGYPLTVYDECNKFQLIVPTLDANIMLWCIGQLSLLNDSNGCKHLFWQPNDKSNVRILLNNYDYGHLFKYLQCQRKCSVYIGEGTLKKYNLTISTSFDNFLDLTPSEEKESLCREDAHEDPVSPKAGSEEEISPNSTSNVVVSRECLDNFMKQLLKLEESLNKLELEQKVTNKEPNHRISGTIDIPEDRSELVNFFTELKTVKQLEDVFQRYHDYERLSQECDSKTEIASDHSKKETKIEVEPPNERSLQITMNQRDNSLYFQLFNNTNSVLAGNCKLKFTDAGDKPTTQIIDMGPHEIGIKEYKEYRYFPYALDLEAGSTIEIENQYGEVIFLGKYGSSPMINLRPPSRLSAESLQASQEPFYSFQIDTLPELDDDDIISTDISLSYDGDDNEKALTWEEL
- binding result (mCherry-Atg11): binds

B2: Atg12–Atg5-Atg16-GFP complex (complex)
chain 1: T2 sequence 1
chain 2: T2 sequence 2
chain 3: T2 sequence 3
modifications: Atg12–Atg5 conjugate | Atg12–Atg5 conjugate
- binding result (Atg2-Atg18-CBP complex): binds

B3: Atg5-mCherry-Atg16(1-46) (complex)
chain 1: T2 sequence 2
chain 2: MGNFIITERKKAKEERSNPQTDSMDDLLIRRLTDRNDKEAHLNELF
- binding result (Atg2-mEGFP): binds

B4: Atg11 (full length; fluorescent tag of this experiment not told) (natural protein)
chain: T1 sequence
- stoichiometry N [1]: 2

B5: Atg9-EGFP in proteoliposomes (Atg9 PLs) (natural protein)
chain: MERDEYQLPNSHGKNTFLSRIFGLQSDEVNPSLNSQEMSNFPLPDIERGSSLLHSTNDSREDVDENDLRVPESDQGTSTEEEDEVDEEQVQAYAPQISDGLDGDHQLNSVTSKENVLETEKSNLERLVEGSTDDSVPKVGQLSSEEEEDNEFINNDGFDDDTPLFQKSKIHEFSSKKSNTIEDGKRPLFFRHILQNNRPQRDTQKLFTSSNAIHHDKDKSANNGPRNINGNQKHGTKYFGSATQPRFTGSPLNNTNRFTKLFPLRKPNLLSNISVLNNTPEDRINTLSVKERALWKWANVENLDIFLQDVYNYYLGNGFYCIILEKILNICTLLFVVFVSTYMGHCVDYSKLPTSHRVSDIIIDKCYSNSITGFTKFFLWMFYFFVILKIVQLYFDVQKLSELQNFYKYLLNISDDELQTLPWQNVIQQLMYLKDQNAMTANVVEVKAKNRIDAHDVANRIMRRENYLIALYNSDILNLSLPIPLFRTNVLTKTLEWNINLCVMGFVFNESGFIKQSILKPSQREFTREELQKRFMLAGFLNIILAPFLVTYFVLLYFFRYFNEYKTSPGSIGARQYTPIAEWKFREYNELYHIFKKRISLSTTLANKYVDQFPKEKTNLFLKFVSFICGSFVAILAFLTVFDPENFLNFEITSDRSVIFYITILGAIWSVSRNTITQEYHVFDPEETLKELYEYTHYLPKEWEGRYHKEEIKLEFCKLYNLRIVILLRELTSLMITPFVLWFSLPSSAGRIVDFFRENSEYVDGLGYVCKYAMFNMKNIDGEDTHSMDEDSLTKKIAVNGSHTLNSKRRSKFTAEDHSDKDLANNKMLQSYVYFMDDYSNSENLTGKYQLPAKKGYPNNEGDSFLNNKYSWRKQFQPGQKPELFRIGKHALGPGHNISPAIYSTRNPGKNWDNNNNGDDIKNGTNNATAKNDDNNGNNDHEYVLTESFLDSGAFPNHDVIDHNKMLNSNYNGNGILNKGGVLGLVKEYYKKSDVGR
- binding result (mCherry-Atg11): binds

B6: Atg21 (natural protein)
chain: MKVLQFNQDATCCVVAASSHQISIFNCDPFGKCFEIDTKNSKKKTSNNNGSASNSESRNNEESILITNGSRDRTDAEEEEDNEDNALVTGNILKEGEFVIEMLFSTSLIAIADRGQGLNKGKKLKIVNTKRKCTICEIVFPHEIVDVVMNRKRMCVLLESDQIFIYDISCMKPLETIDLWEDHYKRSQANSFSNASNTGTLEGDSANLNRVATNLLANATQKSVNGSNPSVRTRRNSLRSKIRPRMVLSNDDRSILCFTAYSSPKKNKPNSEALYDVVIYDTLNVTPVNYLNSVHKGNVACLAVSHDGKLLATASDKGTIIRVFHTGVDSDYMSSRSLFKEFRRGTRLCNLYQLAFDKSMTMIGCVGDTDTIHLFKLDDASNSLPGDNSSNGHWNEEEYILASNSNPSMGTPKEIPLSKPRIANYFSKKIKSSIPNQNLSRNFAYITVNESNRSCLGFPDEFPNQVYIASDDGTFSIYSIPSKPGECVLTKNNKFT
- binding result [2]: binds
